From publication PMC9296673, “Conformational landscape of the yeast SAGA complex as revealed by cryo-EM” (Scientific Reports, 2022)

Molecular target: T1, Tra1 (S. cerevisiae, UniProt P38811 1-3744)
T1 construct: Tra1, S. cerevisiae, largest subunit of SAGA (433 kDa), endogenous subunit of the purified native complex; Subunit of native SAGA purified through a 3xFLAG tag; The complex was mildly cross-linked with glutaraldehyde (GraFix) before cryo-EM; also called Tra1 module; head; source: endogenous, S. cerevisiae, purified as part of native SAGA (anti-FLAG M2 resin, FLAG peptide elution, GraFix)
Assay: cryo-EM structure; native S. cerevisiae SAGA purified by anti-FLAG and GraFix (glycerol/glutaraldehyde gradient), 40 mM HEPES pH 7.4, 150 mM NaCl, 0.01% Tween-20, vitrified on lacey carbon grids with graphene oxide; consensus map 3.1 Å, Tra1 2.9 Å, core 3.2 Å; published models (PDB 6t9j, 6t9k) fitted into the map
Details: both partners purified

T1 sequence (P38811 whole entry): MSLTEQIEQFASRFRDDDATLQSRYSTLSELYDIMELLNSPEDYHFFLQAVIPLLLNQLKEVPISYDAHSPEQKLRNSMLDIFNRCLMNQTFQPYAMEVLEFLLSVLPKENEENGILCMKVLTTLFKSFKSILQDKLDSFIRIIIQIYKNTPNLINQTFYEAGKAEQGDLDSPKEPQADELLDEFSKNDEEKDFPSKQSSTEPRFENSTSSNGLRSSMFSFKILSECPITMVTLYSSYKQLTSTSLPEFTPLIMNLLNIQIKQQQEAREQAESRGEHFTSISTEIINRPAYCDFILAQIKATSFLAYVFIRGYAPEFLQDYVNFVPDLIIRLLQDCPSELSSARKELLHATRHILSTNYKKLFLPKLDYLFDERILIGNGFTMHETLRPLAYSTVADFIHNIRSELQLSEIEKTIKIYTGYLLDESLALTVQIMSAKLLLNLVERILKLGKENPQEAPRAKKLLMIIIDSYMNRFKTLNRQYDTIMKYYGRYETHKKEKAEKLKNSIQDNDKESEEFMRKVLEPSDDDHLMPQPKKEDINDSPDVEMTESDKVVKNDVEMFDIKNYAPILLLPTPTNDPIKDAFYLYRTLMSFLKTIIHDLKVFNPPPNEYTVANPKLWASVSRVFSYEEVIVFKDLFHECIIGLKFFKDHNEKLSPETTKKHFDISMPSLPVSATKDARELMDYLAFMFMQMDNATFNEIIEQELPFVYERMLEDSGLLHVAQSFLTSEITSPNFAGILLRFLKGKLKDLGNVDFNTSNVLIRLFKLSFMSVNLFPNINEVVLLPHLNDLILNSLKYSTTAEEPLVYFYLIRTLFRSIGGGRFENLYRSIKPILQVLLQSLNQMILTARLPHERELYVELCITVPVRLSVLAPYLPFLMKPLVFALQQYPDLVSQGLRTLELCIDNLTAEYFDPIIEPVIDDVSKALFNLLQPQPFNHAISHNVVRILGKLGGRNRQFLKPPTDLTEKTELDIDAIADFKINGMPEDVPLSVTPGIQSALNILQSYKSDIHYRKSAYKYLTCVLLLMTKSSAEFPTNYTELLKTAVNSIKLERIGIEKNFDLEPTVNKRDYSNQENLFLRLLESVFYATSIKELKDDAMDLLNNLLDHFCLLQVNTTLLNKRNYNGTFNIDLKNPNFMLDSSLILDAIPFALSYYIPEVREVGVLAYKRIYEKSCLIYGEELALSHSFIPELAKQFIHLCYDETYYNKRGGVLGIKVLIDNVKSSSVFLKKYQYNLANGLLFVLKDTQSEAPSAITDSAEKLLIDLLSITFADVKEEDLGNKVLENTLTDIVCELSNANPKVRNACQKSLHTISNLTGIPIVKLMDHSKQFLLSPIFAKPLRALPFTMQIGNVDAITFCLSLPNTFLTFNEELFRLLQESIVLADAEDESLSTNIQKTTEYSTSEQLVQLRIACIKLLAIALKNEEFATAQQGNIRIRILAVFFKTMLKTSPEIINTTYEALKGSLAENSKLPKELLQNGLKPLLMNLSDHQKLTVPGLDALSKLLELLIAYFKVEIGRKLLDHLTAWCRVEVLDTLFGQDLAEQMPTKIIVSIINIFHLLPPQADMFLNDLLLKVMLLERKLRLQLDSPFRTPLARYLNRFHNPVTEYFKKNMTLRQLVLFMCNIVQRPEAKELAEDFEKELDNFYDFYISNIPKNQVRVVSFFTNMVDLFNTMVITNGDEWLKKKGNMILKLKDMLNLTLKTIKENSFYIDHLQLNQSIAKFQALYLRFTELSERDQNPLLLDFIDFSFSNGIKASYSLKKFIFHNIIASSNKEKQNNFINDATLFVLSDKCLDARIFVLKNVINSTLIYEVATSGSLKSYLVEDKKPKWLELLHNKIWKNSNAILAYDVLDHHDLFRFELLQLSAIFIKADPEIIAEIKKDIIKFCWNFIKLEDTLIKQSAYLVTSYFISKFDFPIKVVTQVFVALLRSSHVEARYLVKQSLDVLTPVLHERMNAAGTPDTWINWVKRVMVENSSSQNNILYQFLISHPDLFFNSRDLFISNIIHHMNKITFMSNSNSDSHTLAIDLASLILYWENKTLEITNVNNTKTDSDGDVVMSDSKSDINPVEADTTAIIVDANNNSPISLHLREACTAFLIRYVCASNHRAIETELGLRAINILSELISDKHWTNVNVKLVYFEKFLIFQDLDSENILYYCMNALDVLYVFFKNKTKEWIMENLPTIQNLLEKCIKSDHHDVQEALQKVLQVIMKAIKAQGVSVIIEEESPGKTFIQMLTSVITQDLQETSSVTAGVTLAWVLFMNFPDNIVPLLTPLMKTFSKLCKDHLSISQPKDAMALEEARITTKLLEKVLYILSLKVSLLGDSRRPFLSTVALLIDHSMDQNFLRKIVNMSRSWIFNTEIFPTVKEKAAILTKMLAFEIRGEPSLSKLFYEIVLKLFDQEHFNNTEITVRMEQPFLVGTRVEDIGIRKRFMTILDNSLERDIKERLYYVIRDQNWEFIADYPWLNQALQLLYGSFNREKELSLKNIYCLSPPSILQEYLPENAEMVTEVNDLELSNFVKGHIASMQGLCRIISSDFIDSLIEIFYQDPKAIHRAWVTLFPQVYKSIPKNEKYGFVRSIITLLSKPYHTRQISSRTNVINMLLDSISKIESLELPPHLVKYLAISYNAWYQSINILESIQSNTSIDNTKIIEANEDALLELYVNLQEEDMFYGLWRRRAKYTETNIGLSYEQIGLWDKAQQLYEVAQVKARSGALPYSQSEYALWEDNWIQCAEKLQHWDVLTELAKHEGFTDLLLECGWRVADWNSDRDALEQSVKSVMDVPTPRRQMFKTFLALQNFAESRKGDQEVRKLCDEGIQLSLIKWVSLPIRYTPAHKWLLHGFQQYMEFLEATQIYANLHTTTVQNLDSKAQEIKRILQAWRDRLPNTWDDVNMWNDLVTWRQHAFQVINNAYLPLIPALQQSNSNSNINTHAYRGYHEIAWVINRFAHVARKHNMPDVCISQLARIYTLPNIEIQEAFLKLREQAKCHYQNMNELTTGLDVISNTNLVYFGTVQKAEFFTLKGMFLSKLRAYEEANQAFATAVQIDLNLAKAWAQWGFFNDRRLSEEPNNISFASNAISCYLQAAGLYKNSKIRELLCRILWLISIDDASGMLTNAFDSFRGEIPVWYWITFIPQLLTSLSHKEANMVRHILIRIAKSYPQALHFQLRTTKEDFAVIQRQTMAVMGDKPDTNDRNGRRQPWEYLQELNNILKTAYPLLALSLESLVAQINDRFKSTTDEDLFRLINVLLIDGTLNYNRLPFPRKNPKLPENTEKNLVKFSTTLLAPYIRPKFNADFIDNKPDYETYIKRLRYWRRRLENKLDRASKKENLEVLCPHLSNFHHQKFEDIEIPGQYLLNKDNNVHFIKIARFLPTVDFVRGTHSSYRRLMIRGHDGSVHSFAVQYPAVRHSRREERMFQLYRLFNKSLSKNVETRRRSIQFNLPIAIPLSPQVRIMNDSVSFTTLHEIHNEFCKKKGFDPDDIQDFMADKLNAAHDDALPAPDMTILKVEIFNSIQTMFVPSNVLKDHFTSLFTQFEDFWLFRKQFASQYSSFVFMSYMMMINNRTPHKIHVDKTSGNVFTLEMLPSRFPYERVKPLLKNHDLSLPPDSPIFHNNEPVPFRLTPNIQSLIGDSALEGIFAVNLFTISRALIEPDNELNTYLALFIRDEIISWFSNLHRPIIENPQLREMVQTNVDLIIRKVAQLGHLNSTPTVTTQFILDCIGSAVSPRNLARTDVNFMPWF

| binding result | Binder |
| --- | --- |
| binds | Spt20 (natural protein, S. cerevisiae, UniProt P50875 1-604, looked up, Spt20, S. cerevisiae, subunit of the SAGA core module, endogenous subunit of the purified native complex; Subunit of native SAGA purified through a 3xFLAG tag; The complex was mildly cross-linked with glutaraldehyde (GraFix) before cryo-EM; also called Spt20 core subunit; source: endogenous, S. cerevisiae, purified as part of native SAGA (anti-FLAG M2 resin, FLAG peptide elution, GraFix)) MSANSPTGNDPHVFGIPVNATPSNMGSPGSPVNVPPPMNPAVANVNHPVMRTNSNSNANEGTRTLTREQIQQLQQRQRLLLQQRLLEQQRKQQALQNYEAQFYQMLMTLNKRPKRLYNFVEDADSILKKYEQYLHSFEFHIYENNYKICAPANSRLQQQQKQPELTSDGLILTKNNETLKEFLEYVARGRIPDAIMEVLRDCNIQFYEGNLILQVYDHTNTVDVTPKENKPNLNSSSSPSNNNSTQDNSKIQQPSEPNSGVANTGANTANKKASFKRPRVYRTLLKPNDLTTYYDMMSYADNARFSDSIYQQFESEILTLTKRNLSLSVPLNPYEHRDMLEETAFSEPHWDSEKKSFIHEHRAESTREGTKGVVGHIEERDEFPQHSSNYEQLMLIMNERTTTITNSTFAVSLTKNAMEIASSSSNGVRGASSSTSNSASNTRNNSLANGNQVALAAAAAAAAVGSTMGNDNNQFSRLKFIEQWRINKEKRKQQALSANINPTPFNARISMTAPLTPQQQLLQRQQQALEQQQNGGAMKNANKRSGNNATSNNNNNNNNLDKPKVKRPRKNAKKSESGTPAPKKKRMTKKKQSASSTPSSTTMS |
| binds | Taf12 (natural protein, S. cerevisiae, UniProt Q03761 1-539, looked up, Taf12, S. cerevisiae, subunit of the SAGA core module, endogenous subunit of the purified native complex; Subunit of native SAGA purified through a 3xFLAG tag; The complex was mildly cross-linked with glutaraldehyde (GraFix) before cryo-EM; also called Taf12 core subunit; source: endogenous, S. cerevisiae, purified as part of native SAGA (anti-FLAG M2 resin, FLAG peptide elution, GraFix)) MSSNPENSGVNANNNTGTGNADAITGAQQNMVLQPRQLQEMAAKFRTLLTEARNVGETTPRGKELMFQAAKIKQVYDALTLNRRRQQAAQAYNNTSNSNSSNPASIPTENVPNSSQQQQQQQQQTRNNSNKFSNMIKQVLTPEENQEYEKLWQNFQVRHTSIKEKETYLKQNIDRLEQEINKQTDEGPKQQLQEKKIELLNDWKVLKIEYTKLFNNYQNSKKTFYVECARHNPALHKFLQESTQQQRVQQQRVQQQQQQQQQQQQQQQQQQQQQQQRQGQNQRKISSSNSTEIPSVTGPDALKSQQQQQNTITATNNPRGNVNTSQTEQSKAKVTNVNATASMLNNISSSKSAIFKQTEPAIPISENISTKTPAPVAYRSNRPTITGGSAMNASALNTPATTKLPPYEMDTQRVMSKRKLRELVKTVGIDEGDGETVIDGDVEELLLDLADDFVTNVTAFSCRLAKHRKSDNLEARDIQLHLERNWNIRIPGYSADEIRSTRKWNPSQNYNQKLQSITSDKVAAAKNNGNNVASLNTKK |
